Data from patent publication US20140287434.

What was measured:
[1] = target: Itk SH3-SH2 (Itk 32), Q03526
[2] = target: full-length wild-type Lck
Peptide B = target: T1, Peptide B
T1 chain: EQEDEPEGIYGVLF

[3] = target: T2, biotinylated PLCγ1 SH2C-Peptide B fusion protein, P10686
T2 chain: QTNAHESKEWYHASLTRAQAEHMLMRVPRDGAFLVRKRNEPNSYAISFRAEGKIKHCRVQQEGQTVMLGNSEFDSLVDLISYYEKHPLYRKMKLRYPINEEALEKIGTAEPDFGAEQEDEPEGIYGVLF

[4] = target: T3, PLCγ1 SH2C -Y783-, P10686
T3 chain: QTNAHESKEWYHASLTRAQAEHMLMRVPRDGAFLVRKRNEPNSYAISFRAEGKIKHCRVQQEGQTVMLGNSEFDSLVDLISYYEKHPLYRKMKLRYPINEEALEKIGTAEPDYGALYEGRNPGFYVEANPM

[5] = target: T4, free Itk SH2 domain, Q03526
T4 chain: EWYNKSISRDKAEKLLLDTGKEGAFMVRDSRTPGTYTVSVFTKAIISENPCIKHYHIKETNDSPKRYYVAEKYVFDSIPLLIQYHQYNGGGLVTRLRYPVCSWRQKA

[6] = target: T5, free PLCγ1 SH2C domain, P10686
T5 chain: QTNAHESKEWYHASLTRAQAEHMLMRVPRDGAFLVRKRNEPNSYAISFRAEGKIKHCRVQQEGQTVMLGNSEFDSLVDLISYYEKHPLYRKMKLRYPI

[7] = target: N-terminal Phosphatidylinositol 3-Kinase (p85α) SH2 domain (PI3K SH2)
[8] = target: T6, Itk SH3-Linker (Itk 3Linker), Q03526
T6 chain: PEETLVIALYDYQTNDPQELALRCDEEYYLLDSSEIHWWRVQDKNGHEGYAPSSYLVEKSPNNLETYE

Itk SH3, Q03526 = target: T7, Itk SH3, Q03526
T7 chain: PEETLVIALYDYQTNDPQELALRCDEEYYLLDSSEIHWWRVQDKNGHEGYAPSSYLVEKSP

PLCγ1 -Y783-SH3, P10686 = target: T8, PLCγ1 -Y783-SH3, P10686
T8 chain: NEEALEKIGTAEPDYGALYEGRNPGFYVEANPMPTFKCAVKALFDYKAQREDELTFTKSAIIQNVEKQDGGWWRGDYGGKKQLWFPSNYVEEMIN

Sequence of Grb2 SH2 domain (chain, as listed by the source): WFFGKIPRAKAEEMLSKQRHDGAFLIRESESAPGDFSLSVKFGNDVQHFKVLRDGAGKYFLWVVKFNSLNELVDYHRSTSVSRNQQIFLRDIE

B1: FLAG-tagged Tec full-length enzyme (enzyme, UniProt P42680 1-631, looked up, species assumed)
chain: MNFNTILEEILIKRSQQKKKTSPLNYKERLFVLTKSMLTYYEGRAEKKYRKGFIDVSKIKCVEIVKNDDGVIPCQNKYPFQVVHDANTLYIFAPSPQSRDLWVKKLKEEIKNNNNIMIKYHPKFWTDGSYQCCRQTEKLAPGCEKYNLFESSIRKALPPAPETKKRRPPPPIPLEEEDNSEEIVVAMYDFQAAEGHDLRLERGQEYLILEKNDVHWWRARDKYGNEGYIPSNYVTGKKSNNLDQYEWYCRNMNRSKAEQLLRSEDKEGGFMVRDSSQPGLYTVSLYTKFGGEGSSGFRHYHIKETTTSPKKYYLAEKHAFGSIPEIIEYHKHNAAGLVTRLRYPVSVKGKNAPTTAGFSYEKWEINPSELTFMRELGSGLFGVVRLGKWRAQYKVAIKAIREGAMCEEDFIEEAKVMMKLTHPKLVQLYGVCTQQKPIYIVTEFMERGCLLNFLRQRQGHFSRDVLLSMCQDVCEGMEYLERNSFIHRDLAARNCLVSEAGVVKVSDFGMARYVLDDQYTSSSGAKFPVKWCPPEVFNYSRFSSKSDVWSFGVLMWEVFTEGRMPFEKYTNYEVVTMVTRGHRLYQPKLASNYVYEVMLRCWQEKPEGRPSFEDLLRTIDELVECEETFGR
modifications: full-length FLAG tag
In the case of B1, the “phosphorylation on Y187 in an in vitro kinase assay” value (Tec SH3-SH2 (Tec 32)) is reported as “only substrates that contain both the site of phosphorylation (Y180 for Itk, Y187 for Tec, Y223 for Btk, and Y783 for PLCγ1) and the adjacent SH2 domain are phosphorylated by the Tec kinases” and the “phosphorylation on Y187 in an in vitro kinase assay” value (Tec SH3) is reported as “are not phosphorylated by the Tec and Btk kinases”.

B2: FLAG-tagged Itk kinase domain (Itk KD) (protein)
chain: VIQPSELTFVQEIGSGQFGLVHLGYWLNKDKVAIKTIQEGAMSEEDFIEEAEVMMKLSHPKLVQLYGVCLEQAPICLVFEFMEHGCLSDYLRSQRGLFAAETLLGMCLDVCEGMAYLEKACVIHRDLAARNCLVGENQVIKVSDFGMTRFVLDDQYTSSTGTKFPVKWASPEVFSFSRYSSKSDVWSFGVLMWEVFSEGKIPYENRSNSEVVEDISTGFRLYKPRLASCHVYQIMNHCWKEKPEDRPPFSQLLSQLAEIAEAGL
For B2, the “phosphorylation of Itk 32 by the isolated Itk kinase domain (anti-pY180 blot)” value [1] was “The Itk catalytic fragment leads to substrate phosphorylation”.

B3: Catalytically inactive (K390R) Itk kinase domain (KD) (protein)
chain: VIQPSELTFVQEIGSGQFGLVHLGYWLNRDKVAIKTIQEGAMSEEDFIEEAEVMMKLSHPKLVQLYGVCLEQAPICLVFEFMEHGCLSDYLRSQRGLFAAETLLGMCLDVCEGMAYLEKACVIHRDLAARNCLVGENQVIKVSDFGMTRFVLDDQYTSSTGTKFPVKWASPEVFSFSRYSSKSDVWSFGVLMWEVFSEGKIPYENRSNSEVVEDISTGFRLYKPRLASCHVYQIMNHCWKEKPEDRPPFSQLLSQLAEIAEAGL
In the case of B3, the “phosphorylation of Itk Y511 by Lck (Btk phosphoY551 antibody blot)” value [2] is reported as “phosphorylation of the Itk kinase domain alone (on Y511) by Lck is very inefficient”.

B4: Catalytically inactive (K390R) Itk SH2-kinase domain (2KD) (protein)
chain: EWYNKSISRDKAEKLLLDTGKEGAFMVRDSRTPGTYTVSVFTKAIISENPCIKHYHIKETNDSPKRYYVAEKYVFDSIPLLIQYHQYNGGGLVTRLRYPVCSWRQKAPVTAGLRYGKWVIQPSELTFVQEIGSGQFGLVHLGYWLNRDKVAIKTIQEGAMSEEDFIEEAEVMMKLSHPKLVQLYGVCLEQAPICLVFEFMEHGCLSDYLRSQRGLFAAETLLGMCLDVCEGMAYLEKACVIHRDLAARNCLVGENQVIKVSDFGMTRFVLDDQYTSSTGTKFPVKWASPEVFSFSRYSSKSDVWSFGVLMWEVFSEGKIPYENRSNSEVVEDISTGFRLYKPRLASCHVYQIMNHCWKEKPEDRPPFSQLLSQLAEIAEAGL
B4 was tested, and the “phosphorylation of Itk Y511 by Lck (Btk phosphoY551 antibody blot)” value [2] was “Lck phosphorylation of the SH2-kinase fragment of Itk proceeds readily”.

B5: FLAG-tagged Itk LKD enzyme (protein)
chain: CSWRQKAPVTAGLRYGKWVIQPSELTFVQEIGSGQFGLVHLGYWLNKDKVAIKTIQEGAMSEEDFIEEAEVMMKLSHPKLVQLYGVCLEQAPICLVFEFMEHGCLSDYLRSQRGLFAAETLLGMCLDVCEGMAYLEKACVIHRDLAARNCLVGENQVIKVSDFGMTRFVLDDQYTSSTGTKFPVKWASPEVFSFSRYSSKSDVWSFGVLMWEVFSEGKIPYENRSNSEVVEDISTGFRLYKPRLASCHVYQIMNHCWKEKPEDRPPFSQLLSQLAEIAEAGL
For B5, the Km (Peptide B) was 87 µM for Peptide B alone, the Km [3] was 5.64 µM for the SH2-Peptide B fusion and the “fold increase in substrate affinity against Peptide B alone” value [3] was “exhibiting a 15-fold increase in substrate affinity”. For the same protein, the “kcat/Km against Peptide B alone” value [3] was “Peptide B is a better substrate by 7-fold (kat/Km) when tethered to the SH2 domain of PLCγ1”.

B6: FLAG-tagged Itk full-length (FLItk) enzyme (protein)
chain: MNNFILLEEQLIKKSQQKRRTSPSNFKVRFFVLTKASLAYFEDRHGKKRTLKGSIELSRIKCVEIVKSDISIPCHYKYPFQTLVYLQVVHDNYLLYVFAPDCESRQRWVLTLKEETRNNNSLVSKYHPNFWMDGRWRCCSQLEKPAVGCAPYDPSKNASKKPLPPTPEDNRRSFQEPEETLVIALYDYQTNDPQELALRCDEEYYLLDSSEIHWWRVQDKNGHEGYAPSSYLVEKSPNNLETYEWYNKSISRDKAEKLLLDTGKEGAFMVRDSRTPGTYTVSVFTKAIISENPCIKHYHIKETNDSPKRYYVAEKYVFDSIPLLIQYHQYNGGGLVTRLRYPVCSWRQKAPVTAGLRYGKWVIQPSELTFVQEIGSGQFGLVHLGYWLNKDKVAIKTIQEGAMSEEDFIEEAEVMMKLSHPKLVQLYGVCLEQAPICLVFEFMEHGCLSDYLRSQRGLFAAETLLGMCLDVCEGMAYLEKACVIHRDLAARNCLVGENQVIKVSDFGMTRFVLDDQYTSSTGTKFPVKWASPEVFSFSRYSSKSDVWSFGVLMWEVFSEGKIPYENRSNSEVVEDISTGFRLYKPRLASCHVYQIMNHCWKEKPEDRPPFSQLLSQLAEIAEAGL
B6 was tested, and the “phosphorylation on Y180 in an in vitro kinase assay” value (from here on “phosphorylation on Y180”) [1] was “only substrates that contain both the site of phosphorylation (Y180 for Itk, Y187 for Tec, Y223 for Btk, and Y783 for PLCγ1) and the adjacent SH2 domain are phosphorylated by the Tec kinases”, the “phosphorylation on Y783 in an in vitro kinase assay” value [4] was “only substrates that contain both the site of phosphorylation (Y180 for Itk, Y187 for Tec, Y223 for Btk, and Y783 for PLCγ1) and the adjacent SH2 domain are phosphorylated by the Tec kinases” and the “autophosphorylation of Tyr 180 within full length Itk” value [5] was “autophosphorylation at this site is greatly diminished upon addition of free Itk SH2 domain”. The “initial velocity of peptide B phosphorylation by full length Itk” value [5] was “do not change significantly with increasing concentrations of Itk SH2 domain”, the “phosphorylation of Itk 32 substrate on Y180 by full-length Itk (anti-pY180 blot)” value [5] was “free Itk SH2 domain competes with the Itk 32 substrate” and the “phosphorylation of PLCγ1 SH2C -Y783- substrate by full-length Itk (anti-pY783 blot)” value [6] was “The PLCγ1 SH2 domain competes with the PLCγ1 substrate in a similar manner”. For the same protein, the “phosphorylation of Itk 32 and PLCγ1 SH2C -Y783- by full-length Itk” value (Grb2 SH2 domain) was “two different control SH2 domains (derived from PI3K and Grb2) do not inhibit the phosphorylation of the substrates even at large molar excess”, the “phosphorylation of Itk 32 and PLCγ1 SH2C -Y783- by full-length Itk” value [7] was “two different control SH2 domains (derived from PI3K and Grb2) do not inhibit the phosphorylation of the substrates even at large molar excess” and the “phosphorylation on Y180” value [8] was “Only Itk fragments that contain the SH2 domain and Y180 are phosphorylated by Itk”. The “phosphorylation on Y180” value (Itk SH3, Q03526) was “the isolated SH3 domain does not serve as a substrate for full length Itk” and the “phosphorylation on Y783 in an in vitro kinase assay” value (PLCγ1 -Y783-SH3, P10686) was “is not phosphorylated by full length Itk”.
